Target: GAL4-CREB fusion protein (Stratagene): CREB activation domain fused with the yeast GAL4 DNA binding domain (amino acids 1-147) (yeast) (UniProt P04386)
Assay: cell-based or functional assay

human CREAP2, full length (from UniProt Q53ET0 1-693)
Fold Induction (luciferase from the genome-integrated pFR-Luc/UAS-Luc reporter in HLR cells, GAL4-CREB co-transfected with CREAP2, normalized to pCMV-BD vector): 178 fold

human CREAP3, full length (from UniProt Q6UUV7 1-619)
Fold Induction (luciferase from the genome-integrated pFR-Luc/UAS-Luc reporter in HLR cells, GAL4-CREB co-transfected with CREAP3, normalized to pCMV-BD vector): 448 fold

human CREAP1 (CRE activating protein 1), full length (from UniProt Q6UUV9 1-634)
Fold Induction (luciferase from the genome-integrated pFR-Luc/UAS-Luc reporter in HLR cells, GAL4-CREB co-transfected with CREAP1, normalized to pCMV-BD vector): 233 fold

— patent US20070036810A1, “Cyclic amp response element activator proteins and uses related thereto” (priority 2003, published 2007)
